# Measurements: US20210070855A1 (NANJING LEGEND BIOTECH, published 2021)
# Residue numbers refer to the chain shown, from its start.
# B1: 112E5D9 (antibody, V domains shown)
# VH: QVQLQQSGPQLVRPGASVKISCKASGYSFTNNWMHWMKQRPGQGLEWIGMIDPSDSETRLNQQFRDKATLTVDKTSSTAYMQLSSPTSEDSAVYYCARLGRYYFDYWGLGTTLTVSS
# VL: NIVMTQSPKSMSVSVGERVTMNCRASEIVGTYVSWYQQKPEQSPKLLIYGAFNRYTGVPDRFTGSRSGTDFSLNISNVQAEDLADYLCGQSYDSPYTFGGGTKLEIK
# notes: purified murine anti-CD47 hybridoma antibody; same VH and VL as 112E5F2 and 112E5H7; also called 10-112E5D9
# B2: 112E5F2 (antibody, V domains shown)
# VH: B1 VH
# VL: B1 VL
# notes: purified murine anti-CD47 hybridoma antibody; same VH and VL as 112E5D9 and 112E5H7; also called 11-112E5F2
# B3: 112E5H7 (antibody, V domains shown)
# VH: B1 VH
# VL: B1 VL
# notes: purified murine anti-CD47 hybridoma antibody; same VH and VL as 112E5D9 and 112E5F2; also called 12-112E5H7
# B4: 55F2C4 (antibody, V domains shown)
# VH: B1 VH with N32Y, R65K, T71A, T75S, L109Q
# VL: B1 VL with S12Y, M21L, N22I, F52S, G68A, N74T
# notes: also called 01-55F2C4
# B5: 108C10A6 (antibody, V domains shown)
# VH: QMQLQQSGPQLVRPGASVKISCKTSGYSFTHHWIHWMKQRPGQGLEWIGMIDPSDSETRLSQKFKDKATLTVDASSSTAYMQLNSPTSEDSALYFCARLGRYYFDYWGQGTTLTVSS
# VL: NIVMTQSPRSMSMSVGERVTLSCKASENVGTYISWYQQKPDQSPKLLIYGASNRYTGVPDRFTGSGSGTDFTLTISTVQAEDLADYHCGESYGHLYTFGGGTKLEIK
# notes: also called murine anti-CD47 antibody 108C10A6; 108C10A6/108C10F5
# B6: 108C10F5 (antibody, V domains shown)
# VH: B5 VH
# VL: B5 VL
# notes: purified murine anti-CD47 hybridoma antibody; separate subclone with its own curves; same VH and VL as 108C10A6; also called 09-108C10F5
# B7: 108VH4.M4_VL1.M1-hIgG1 (antibody)
# heavy: not shown
# light: EIVLTQSPATLSLSPGERATLSCRASENVGTYISWYQQKPGQAPRLLIYGASNRYTGIPARFSGSGSGTDFTLTISSLEPEDFAVYYCGESYGHLYTFGGGTKVEIKRTVAAPSVFIFPPSDEQLKSGTASVVCLLNNFYPREAKVQWKVDNALQSGNSQESVTEQDSKDSTYSLSSTLTLSKADYEKHKVYACEVTHQGLSSPVTKSFNRGEC
# notes: Humanized 108C10A6, human IgG1 with kappa light chain; also called 108VH4.M4_VL1.M1-hlgG1; 108VH4.M4_VL1.M1-hIgG1-Ka
# B8: 108VH4.M4_VL1.M1-hIgG2 (antibody)
# heavy: EVQLVQSGAEVKKPGSSVKVSCKASGYSFTHHWIHWVRQAPGQGLEWMGMIDASDSETRLSQKFKDRVTITADKSTSTAYMELSSLRSEDTAVYYCARLGRYYFDYWGQGTTVTVSSASTKGPSVFPLAPCSRSTSESTAALGCLVKDYFPEPVTVSWNSGALTSGVHTFPAVLQSSGLYSLSSVVTVPSSNFGTQTYTCNVDHKPSNTKVDKTVERKCCVECPPCPAPPVAGPSVFLFPPKPKDTLMISRTPEVTCVVVDVSHEDPEVQFNWYVDGVEVHNAKTKPREEQFNSTFRVVSVLTVVHQDWLNGKEYKCKVSNKGLPAPIEKTISKTKGQPREPQVYTLPPSREEMTKNQVSLTCLVKGFYPSDIAVEWESNGQPENNYKTTPPMLDSDGSFFLYSKLTVDKSRWQQGNVFSCSVMHEALHNHYTQKSLSLSPGK
# light: B7 light
# notes: Humanized 108C10A6, human IgG2 with kappa light chain; also called 108VH4.M4_VL1.M1-hlgG2; 108VH4.M4_VL1.M1-hIgG2-Ka
# B9: 98G5F11 (antibody, V domains shown)
# VH: B1 VH with N32Y, R65K, T75S, Y106F, L109Q
# VL: B1 VL with M21L, N22S, F52S, Y55F, G68A, N74T
# notes: purified murine anti-CD47 hybridoma antibody; same VH and VL as 98G5F6; also called 06-98G5F11
# B10: 98E2E7 (antibody, V domains shown)
# VH: B1 VH with N32H, R65K, T75S, Y94F, L109Q
# VL: B1 VL with M21L, N22S, E27D, F52S, G68A, N74T
# notes: purified murine anti-CD47 hybridoma antibody; same VH and VL as 98E2E12; also called 03-98E2E7
# B11: 107F11C4 (antibody, V domains shown)
# VH: EVQLQQSGAEFVKPGASVKLSCTASGFNIEDTYMHWVKQRPEQGLEWIGMIDPANGKTKYGPRFQDKATVTADTSSNTANLQLSSLTSEDTAVYYCADGIGYYVGAMDYWGQGTSVTVSS
# VL: DIQMNQSPSSLSASLGDTITITCHASQNINVWLSWYQQKPGNIPKLLIYKASNLHTGVPSRFSGSGSGTGFTLTISSLQPEDIATYYCQQGHSYPYTFGGGTKLEIK
# notes: purified murine anti-CD47 hybridoma antibody; same VH and VL as 107F11B11 and 107F11F10
# B12: 98G5F6 (antibody, V domains shown)
# VH: B1 VH with N32Y, R65K, T75S, Y106F, L109Q
# VL: B1 VL with M21L, N22S, F52S, Y55F, G68A, N74T
# notes: purified murine anti-CD47 hybridoma antibody; same VH and VL as 98G5F11; also called 05-98G5F6
# B13: 98E2E12 (antibody, V domains shown)
# VH: B1 VH with N32H, R65K, T75S, Y94F, L109Q
# VL: B1 VL with M21L, N22S, E27D, F52S, G68A, N74T
# notes: purified murine anti-CD47 hybridoma antibody; same VH and VL as 98E2E7; also called 04-98E2E12
# B14: 107F11B11 (antibody, V domains shown)
# VH: B11 VH
# VL: B11 VL
# notes: purified murine anti-CD47 hybridoma antibody; same VH and VL as 107F11C4 and 107F11F10; also called 07-107F11B11
# Biological target: T1, cynomolgus monkey CD47 on CHO-K1 cells (cynomolgus monkey, UniProt A0A5F8AK49 19-323 (rhesus entry))
# T1 construct: whole, on cells; also called CHO-K1/cyno CD47; CHO-K1/cynoCD47
# Assay: flow cytometry on CHO-K1/cyno CD47 cells; unit taken from the axis
# Method: (§1) Briefly, binding to cell-expressed cyno CD47 was evaluated on cynomolgus monkey CD47 over-expressing CHO cells. Anti-CD47 antibody dilution series was prepared in FACS buffer. CHO-K1/cynomolgus monkey CD47 cell were transferred to a 96-well U-bottom plate and add CD47 antibody dilution. After 30 minutes incubation at 4° C., cells were washed twice with FACS buffer. […] The cells were washed twice with wash buffer, and then analyzed for binding by using FACSCalibur (BD Bioscience, San Jose, Calif.) and Flowjo software.
row,EC50,Binder
1,1.45 nM,B1
2,1.81 nM,B2
3,1.53 nM,B3
4,5.75 nM,B4
5,2.03 nM,B5
6,2.01 nM,B6

# Biological target: T2, human CD47 on cells (human, UniProt Q08722 19-323)
# T2 construct: also called CHO-K1/huCD47; human CD47 over-expressed in CHO-K1 cells
# Assay: flow cytometry, blocking of human SIRPα binding to CHO-K1/huCD47 cells; the box on the sheet is labelled EC50; unit taken from the axis
row,IC50,Binder
1,0.911 nM,B7
2,1.87 nM,B8

# Biological target: T1, cynomolgus monkey CD47 on CHO-K1 cells
# Assay: flow cytometry on CHO-K1/cynoCD47 cells; unit taken from the axis
# Method: as §1
row,EC50,Binder
1,0.262 nM,B7
2,1.31 nM,B8

# Biological target: T2, human CD47 on cells
# Assay: flow cytometry on CHO-K1/huCD47 cells; x axis Log(nM)
# Method: (§2) Binding to cell-expressed human CD47 was evaluated on human CD47 over-expressing CHO cells (GenScript, Cat #M00581). Anti-CD47 antibody dilution series was prepared in FACS buffer. CHO-K1/human CD47 cells were transferred to a 96-well U-bottom plate and anti-CD47 antibody dilution was added. […] The cells were then washed twice with wash buffer. Cells were analyzed for binding by FACSCalibur (BD Bioscience, San Jose, Calif.) and Flowjo software.
row,EC50 (read off the curve),Binder
1,~10 nM,B9
2,~7 nM,B10
3,~5 nM,B6

# Biological target: T2, human CD47 on cells
# Assay: flow cytometry, blocking of human SIRPα binding to CHO-K1/huCD47 cells; the box on the sheet is labelled EC50; unit taken from the axis
# Remark: another data set of the same source
# Method: (§3) After 30 minutes incubation at 4° C., cells were washed twice with FACS buffer.
row,IC50,Binder
1,1.07 nM,B11
2,6.97 nM,B12
3,3.74 nM,B13
4,2.98 nM,B2
5,3.4 nM,B3

# Biological target: T3, human CD47-His protein (human, UniProt Q08722 19-139, limits assumed)
# T3 construct: It includes the signal peptide and the membrane-spanning region, which a soluble protein would lack; not shown: His tag
# Assay: SPR (Biacore T200), antibody captured, human CD47-His as analyte, 1:1 model
Kd,koff,kon,Binder
1.4 nM,0.00043 s⁻¹,310000 M⁻¹ s⁻¹,B7
1.5 nM,0.00044 s⁻¹,290000 M⁻¹ s⁻¹,B8
0.74 nM,0.00032 s⁻¹,430000 M⁻¹ s⁻¹,B5

# Biological target: T2, human CD47 on cells
# Assay: flow cytometry on CHO-K1/huCD47 cells; unit taken from the axis
# Method: as §2
row,EC50,Binder
1,0.299 nM,B7
2,1.4 nM,B8

# Biological target: T2, human CD47 on cells
# Assay: flow cytometry on human red blood cells; unit taken from the axis
row,EC50,Binder
1,9.63 ng/mL,B13
2,55.8 ng/mL,B5

# Biological target: T4, CD47 protein
# T4 construct: also called CD47 (ELISA antigen); not shown: The carrier of the coated recombinant protein (an Fc tag as in CD47-Fc, or a His tag as in CD47-His)
# Assay: ELISA on CD47 protein; x axis is log10 of mAb (ng/ml)
row,EC50 (read off the curve),Binder
1,~5 ng/mL,B14
2,~9 ng/mL,B9
3,~2 ng/mL,B2

# Biological target: T1, cynomolgus monkey CD47 on CHO-K1 cells
# Assay: flow cytometry on CHO-K1/cyno CD47 cells; unit taken from the axis
# Remark: another data set of the same source
# Method: as §1
row,EC50,Binder
1,1.13 nM,B11

# Biological target: T4, CD47 protein
# Assay: ELISA on CD47 protein; x axis is log10 of mAb (ng/ml), unit taken from the axis
row,EC50,Binder
1,3.53 ng/mL,B12
2,2.59 ng/mL,B13
3,3.78 ng/mL,B10
4,4.77 ng/mL,B1
5,9.81 ng/mL,B3
6,1.39 ng/mL,B4
7,62.1 ng/mL,B5
8,23.4 ng/mL,B6

# Biological target: T1, cynomolgus monkey CD47 on CHO-K1 cells
# Assay: flow cytometry on CHO-K1/cyno CD47 cells
# Method: as §1
row,EC50 (read off the curve),Binder
1,~1 nM,B14
2,~2 nM,B13
3,~3 nM,B10

# Biological target: T2, human CD47 on cells
# Assay: flow cytometry, blocking of human SIRPα binding to CHO-K1/huCD47 cells
# Method: as §3
row,IC50 (read off the curve),Binder
1,~2 nM,B14
2,~4 nM,B1
3,~5 nM,B4
4,~1 nM,B5

# Biological target: T2, human CD47 on cells
# Assay: flow cytometry on CHO-K1/huCD47 cells; x axis Log(nM), unit taken from the axis
# Method: as §2
row,EC50,Binder
1,3.48 nM,B12
2,8.21 nM,B13
3,3.47 nM,B1
4,3.15 nM,B2
5,52.5 nM,B4
6,8.59 nM,B5

# Biological target: T2, human CD47 on cells
# Assay: flow cytometry on red blood cells; unit taken from the axis
row,EC50,Binder
1,2.62 nM,B7
2,5.51 nM,B8

# Biological target: T1, cynomolgus monkey CD47 on CHO-K1 cells
# Assay: flow cytometry on CHO-K1/cyno CD47 cells; unit taken from the axis
# Remark: another data set of the same source
# Method: as §1
row,EC50,Binder
1,1.13 nM,B11
